Test results as given in patent EP4790070A1 (Daegu Gyeongbuk Institute of Science and Technology, dated 2026).

T1: human CD24 on human cancer cell lines (MCF7, A549, Huh7) (human, UniProt P25063 27-59)
T1 construct: whole, on cells; Endogenous CD24 on cancer cell lines
T1 chain (looked up): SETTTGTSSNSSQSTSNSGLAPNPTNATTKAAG


Target: T1, human CD24 on human cancer cell lines …
Test: flow cytometry on fixed MCF-7 cells, FITC anti-human IgG

Row | Binder | binding result
1 | anti-CD24 antibody #1 (Fc fusion, also called Candidate 1; αCD24 antibody (#1)) VH: MAQVQLLESGGGVVQPGRSLRLSCAASGFTFSSYGMHWVRQAPGKGLEWVSGMSGDGLATYYADSVKGRFTISRDNSKNTLYLQMNSLRAEDTAVYYCARDSSSWYGGYYYYYGMDVWGQGTTVTVSSGS VL: DIQMTQSPSSVSASVGDRVTITCRASQGISSWLAWYQQKPGKAPKLLIYAASSLQSGVPPRFSGSGSGTDFTLTISSLQPEDFATYYCQQSYSTPLTFGGGTKVEIKR | binds
2 | anti-CD24 antibody #2 (Fc fusion, also called Candidate 2) VH: MAQVQLVQSGGGLIQPGGSLRLSCAASGFTVSSNYMSWVRQAPGKGLEWVSVIYSGGSTYYADSVKGRFTISRDNSKNTLYLQMNSLRAEDTAVYYCAREYGDYFDYWGQGTLVTVSSGS VL: QSALTQPASVSGSPGQSITISCTGTSSDVGGYDHVSWYQQHPGKAPKLMIYEVTKRPSGVSDRFSGSKSGNTASLTISGLQADDEADYYCSSYAGSNSVLFGGGTQLTVLG | binds
